Assay results taken from patent publication US20020160955A1 (published 2002).
Substitutions are numbered along the chain they refer to. Names may count otherwise.

T1: human IGFBP-1 (human, UniProt P08833 26-259)
T1 construct: secreted recombinant protein purified from conditioned medium
T1 sequence (looked up): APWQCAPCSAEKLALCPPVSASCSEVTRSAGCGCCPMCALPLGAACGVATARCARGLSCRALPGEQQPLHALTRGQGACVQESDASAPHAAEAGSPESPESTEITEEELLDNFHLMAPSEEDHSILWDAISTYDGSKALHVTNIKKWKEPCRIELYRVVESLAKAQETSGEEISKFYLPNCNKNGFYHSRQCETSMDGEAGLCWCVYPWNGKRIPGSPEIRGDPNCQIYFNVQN

B1: IGF-I D12A (G1S-A70V background) displayed on phage (ligand, not shown: large carriers)
chain: SPETLCGAELVAALQFVCGDRGFYFNKPTGYGSSSRRAPQTGIVDECCFRSCDLRRLEMYCAPLKPAKSV
notes: monovalent M13 phage display
B2: IGF-I D45A (G1S-A70V background) displayed on phage (ligand, not shown: large carriers)
chain: B1 chain with A12D, D45A
notes: monovalent M13 phage display
B3: IGF-I S35A (G1S-A70V background) displayed on phage (ligand, not shown: large carriers)
chain: B1 chain with A12D, S35A
notes: monovalent M13 phage display
B4: IGF-I T41A (G1S-A70V background) displayed on phage (ligand, not shown: large carriers)
chain: B1 chain with A12D, T41A
notes: monovalent M13 phage display
B5: IGF-I F49A (G1S-A70V background) displayed on phage (ligand, not shown: large carriers; small tags and cut ends)
chain: B1 chain with A12D, F49A
notes: monovalent M13 phage display; also called IGF-F49A phage

How the values were obtained:
human IGFBP-1 = molecular target: T1, human IGFBP-1; experiment: competitive phage ELISA
Procedure: (§1) E. coli cells (XL1-Blue, Stratagene) freshly transformed with phagemid vector were grown overnight in 5 mL 2YT medium (Sambrook et al, supra) in the presence of M13-VCS helper phage (Stratagene). Phage particles were harvested and resuspended in PBS buffer as described in Lowman, H. B., “Phage Display of Peptide Libraries on Protein Scaffolds,” in Cabilly, S. (ed.), Combinatorial Peptide Library Protocols (Humana Press Inc.: Totowa, N.J., 1998), pp. 249-264. Then phage concentrations were normalized to yield a maximal ELISA signal of 0.2-0.4 for each mutant (Lowman, in Cabilly, S. (ed.), supra). Threefold serial dilutions of soluble competitor were prepared on non-absorbent microtiter plates (Nunc, F, 96 wells) with binding buffer (0.5% TWEEN™ 20/PBS) containing phage at the previously-determined concentrations. […] After blocking, the plates containing immobilized target were washed with 0.05% TWEEN™/PBS buffer and subsequently incubated with 80 μl/well of the premixed phage-competitor solutions for 1 hour at room temperature. After washing, bound phage was detected with 80 μl/well of a solution containing a primary rabbit anti-phage polyclonal antibody and a secondary goat anti-rabbit monoclonal antibody-horseradish peroxidase conjugate in 0.5% TWEEN 20™/PBS. o-Phenylenediamine (Sigma) and tetramethylbenzidine (Kirkegaard and Perry) were used as chromogenic substrates, resulting in product detection at 492 and 450 nm, respectively. IC₅₀ values were determined by fitting the binding data to a generic saturation curve (Lowman, in Cabilly, S. (ed.), supra). […] Numbers in Table I represent mean +standard deviation of individually assessed IC₅₀ values.

[1] = molecular target: T2, recombinant human IGFBP-3 (human, UniProt P17936 28-291); experiment: competitive phage ELISA
T2 construct: secreted recombinant protein purified from conditioned medium
Procedure: as §1

[2] = molecular target: T2, recombinant human IGFBP-3; experiment: competitive phage ELISA: soluble IGFBP-3 against IGFBP-3-coated wells
Procedure: The plates were then blocked with 0.5% TWEEN 20™/PBS (also used as binding buffer) for 2 hours at room temperature (proteinaceous blocking agents like bovine serum albumin were avoided to prevent potential IGF or IGFBP contamination). E. coli cells (XL1-Blue, Stratagene) freshly transformed with phagemid vector were grown overnight in 5 mL 2YT medium (Sambrook et al, supra) in the presence of M13-VCS helper phage (Stratagene). Phage particles were harvested and resuspended in PBS buffer as described in Lowman, H. B., “Phage Display of Peptide Libraries on Protein Scaffolds,” in Cabilly, S. (ed.), Combinatorial Peptide Library Protocols (Humana Press Inc.: Totowa, N.J., 1998), pp. 249-264. Then phage concentrations were normalized to yield a maximal ELISA signal of 0.2-0.4 for each mutant (Lowman, in Cabilly, S. (ed.), supra). Threefold serial dilutions of soluble competitor were prepared on non-absorbent microtiter plates (Nunc, F, 96 wells) with binding buffer (0.5% TWEEN™ 20/PBS) containing phage at the previously-determined concentrations.

T2 sequence (P17936 28-291 limits assumed): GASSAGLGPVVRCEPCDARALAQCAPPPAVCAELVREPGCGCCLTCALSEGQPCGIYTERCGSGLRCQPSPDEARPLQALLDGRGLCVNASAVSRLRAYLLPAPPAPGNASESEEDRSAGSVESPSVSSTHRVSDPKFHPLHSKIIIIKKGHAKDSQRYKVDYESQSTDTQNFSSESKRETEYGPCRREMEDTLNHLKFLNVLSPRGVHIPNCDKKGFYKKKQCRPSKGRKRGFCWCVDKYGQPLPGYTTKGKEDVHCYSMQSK

| Binder | binding result (human IGFBP-1) | binding result [1] | other results |
| --- | --- | --- | --- |
| B1 | binds | – | – |
| B2 | binds | – | – |
| B3 | – | binds | – |
| B4 | – | binds | – |
| B5 | – | – | binding result [2]: binds |
